# From patent publication US20230095004
# Tests used:
# [1] = biological target: T1, Angiopoietin-2 (Ang2) (Homo sapiens) (UniProt O15123); assay: flow; conditions: 2'-F
# T1 sequence: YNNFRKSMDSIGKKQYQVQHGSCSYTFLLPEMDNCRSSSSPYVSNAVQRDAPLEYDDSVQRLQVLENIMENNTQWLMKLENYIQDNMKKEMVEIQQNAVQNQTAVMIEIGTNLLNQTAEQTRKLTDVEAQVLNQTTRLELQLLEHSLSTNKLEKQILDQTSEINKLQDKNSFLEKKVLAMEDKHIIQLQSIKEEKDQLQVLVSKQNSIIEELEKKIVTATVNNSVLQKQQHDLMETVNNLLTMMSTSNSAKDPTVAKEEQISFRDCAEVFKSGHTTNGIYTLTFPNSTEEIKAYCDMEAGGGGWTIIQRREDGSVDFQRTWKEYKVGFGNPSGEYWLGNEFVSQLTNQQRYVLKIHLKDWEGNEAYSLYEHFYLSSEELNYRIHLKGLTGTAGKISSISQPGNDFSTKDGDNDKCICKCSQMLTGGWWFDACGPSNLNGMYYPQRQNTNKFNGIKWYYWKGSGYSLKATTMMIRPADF
# [2] = system: T2, VEGF-165 (VEGF-A) (Homo sapiens); assay: flow; conditions: 2'-F
# T2 sequence: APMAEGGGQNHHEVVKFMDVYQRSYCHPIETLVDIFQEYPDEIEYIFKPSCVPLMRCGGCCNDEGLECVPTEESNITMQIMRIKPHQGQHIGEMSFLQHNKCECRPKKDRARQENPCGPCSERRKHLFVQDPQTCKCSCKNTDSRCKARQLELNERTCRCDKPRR
# [3] = OO linker replacing UUUUA after UGCAUGCA
# [4] = internal hexaethylene glycol (H) linker in Ang2 part
# [5] = hexaethylene glycol (H) linker replacing UUUUA after UGCAUGCA
# [6] = OOOO linker replacing UUUUA after UGCAUGCA
sequence,measurement,setting,value
UGCAUGCACCAGUGAGUCGGAUCUCCGCAUAGAUAAGCCAACAAACGUACAUUCUCUGUUAGUAUUUUCUGCG [AMSB107.26],Kd,[1]; [3],0.076 nM
same,Kd,[2]; [3],0.056 nM
UGCAUGCAUUUUACCAGUGAGUCGGAUCUCCGCAUAGAUAAGCCAACAAAUUCUCUGUUAGUAUUUUCUGCG [AMSB107.24],Kd,[1]; [4],1.78 nM
same,Kd,[2]; [4],0.209 nM
UGCAUGCACCAGUGAGUCGGAUCUCCGCAUAGAUAAGCCAACAAACGUACAUUCUCUGUUAGUAUUUUCUGCG [AMSB107.22],Kd,[1]; [5],0.098 nM
same,Kd,[2]; [5],0.055 nM
UGCAUGCAUUUUACCAGUGAGUCGGAUCUCCGCAUAGAUAAGCCAACAAACGUUCUCUGUUAGUAUUUUCUGCG [AMSB107.25],Kd,[1]; [4],1.41 nM
same,Kd,[2]; [4],0.224 nM
UGCAUGCACCAGUGAGUCGGAUCUCCGCAUAGAUAAGCCAACAAACGUACAUUCUCUGUUAGUAUUUUCUGCG [AMSB107.27],Kd,[1]; [6],0.079 nM
same,Kd,[2]; [6],0.059 nM
UGCAUGCAUUUUACCAGUGAGUCGGAUCUCCGCAUAGAUAAGCCAACAAACGUACAUUCUCUGUUAGUAUUUUCUGCG [AMSB107.23],Kd,[1]; 5' hexaethylene glycol (H),0.084 nM
same,Kd,[2]; 5' hexaethylene glycol (H),0.049 nM
